# From US20200147235A1 (AbbVie / Abbott, published 2020)
# Numbering of substitutions follows the chain as printed.
# T1: Human CD98 expressed on stably transfected CHO-K1 cells (human)
# T1 construct: also called huCD98; CD98 heavy chain
# T1 chain: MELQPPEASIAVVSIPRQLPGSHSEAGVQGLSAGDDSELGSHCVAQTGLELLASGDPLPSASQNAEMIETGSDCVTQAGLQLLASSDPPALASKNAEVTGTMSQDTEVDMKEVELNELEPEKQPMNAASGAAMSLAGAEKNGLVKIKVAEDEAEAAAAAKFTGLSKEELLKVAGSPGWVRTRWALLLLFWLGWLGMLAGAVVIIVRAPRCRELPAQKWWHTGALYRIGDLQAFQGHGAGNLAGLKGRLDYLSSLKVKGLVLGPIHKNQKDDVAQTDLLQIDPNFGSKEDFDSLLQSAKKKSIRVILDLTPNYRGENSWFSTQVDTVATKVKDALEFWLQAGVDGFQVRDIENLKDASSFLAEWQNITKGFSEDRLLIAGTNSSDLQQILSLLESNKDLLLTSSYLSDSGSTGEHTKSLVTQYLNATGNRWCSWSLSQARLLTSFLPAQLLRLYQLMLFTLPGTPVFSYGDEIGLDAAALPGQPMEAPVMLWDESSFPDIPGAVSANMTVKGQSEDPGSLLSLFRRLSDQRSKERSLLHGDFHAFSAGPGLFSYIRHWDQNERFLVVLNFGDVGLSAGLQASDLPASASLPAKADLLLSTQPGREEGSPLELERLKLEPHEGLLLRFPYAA
# T2: Human CD98 ECD with C-terminal His-tag (human, UniProt P08195 105-529)
# T2 construct: also called huCD98 ECD; recombinant human CD98 extracellular domain
# T2 sequence: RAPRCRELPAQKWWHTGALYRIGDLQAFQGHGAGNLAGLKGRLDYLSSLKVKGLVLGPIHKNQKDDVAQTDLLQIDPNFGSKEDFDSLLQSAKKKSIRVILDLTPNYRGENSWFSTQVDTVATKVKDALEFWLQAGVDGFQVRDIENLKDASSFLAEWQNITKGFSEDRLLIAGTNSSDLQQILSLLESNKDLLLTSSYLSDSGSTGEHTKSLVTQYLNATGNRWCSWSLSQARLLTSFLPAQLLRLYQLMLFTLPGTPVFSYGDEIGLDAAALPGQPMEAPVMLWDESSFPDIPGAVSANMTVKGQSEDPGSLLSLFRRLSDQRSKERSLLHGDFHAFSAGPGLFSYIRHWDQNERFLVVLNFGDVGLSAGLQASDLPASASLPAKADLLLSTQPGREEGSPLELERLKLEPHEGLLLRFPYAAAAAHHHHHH
# T3: Cynomolgus monkey CD98 ECD with C-terminal His-tag (cynomolgus monkey, UniProt P08195 105-529 (human entry))
# T3 construct: also called cyCD98 ECD; recombinant cynomolgus monkey CD98 extracellular domain
# T3 chain: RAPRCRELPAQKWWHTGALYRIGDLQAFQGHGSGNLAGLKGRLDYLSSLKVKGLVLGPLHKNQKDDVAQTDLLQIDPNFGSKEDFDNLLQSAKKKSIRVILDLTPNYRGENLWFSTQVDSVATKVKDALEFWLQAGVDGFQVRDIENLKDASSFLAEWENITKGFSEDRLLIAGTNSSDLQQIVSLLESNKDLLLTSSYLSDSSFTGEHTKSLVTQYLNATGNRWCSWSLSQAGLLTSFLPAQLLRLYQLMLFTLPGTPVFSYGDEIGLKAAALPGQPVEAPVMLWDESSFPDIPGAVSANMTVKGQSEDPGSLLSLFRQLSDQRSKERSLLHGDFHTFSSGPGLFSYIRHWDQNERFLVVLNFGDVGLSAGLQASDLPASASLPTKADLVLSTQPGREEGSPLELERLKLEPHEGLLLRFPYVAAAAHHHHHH
# B1: Recombinant anti-CD98 chimeric antibody chAb1 (antibody, human IgG1, V domains shown)
# VH: EVKLVESGGGLVQPGGSLRLSCATSGFTFTDYYMSWVRQPPGKALEWLGFIRNPANVYTTEYSASVKGRFTISRDNSQSILYLQMNTLRAEDSATYYCARASYGNSEGWFAYWGQGTLVTVSA
# VL: DIVMSQSPSSLAVSVGEKVTMSCKSSQNLLYNNNQKNYLAWYQQKPGQSPKLLIYWASTRESGVPDRFTGSGSGTDFTLTISSVKAEDLAVYYCQQYYSYPRTFGGGTKLEIK
# B2: Recombinant anti-CD98 chimeric antibody chAb4 (antibody, human IgG1, V domains shown)
# VH: B1 VH with A23T, P54K, N56T, V57I
# VL: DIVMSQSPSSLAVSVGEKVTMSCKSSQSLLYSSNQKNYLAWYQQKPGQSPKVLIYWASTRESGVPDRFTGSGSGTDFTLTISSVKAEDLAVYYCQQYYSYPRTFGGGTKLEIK
# B3: Recombinant anti-CD98 chimeric antibody chAb3 (antibody, human IgG1, V domains shown)
# VH: EVKLVESGGGLVQPGNSLRLSCATSGFTFIDYYMSWVRQSPGKALEWLGFIRNKANGYTTEYSASVKGRFTISRDNSQSILYLQMDTLRAEDSATYYCTRDRPAWFVYWGQGTLVTVSA
# VL: B1 VL with N28S, N32S, N33S, I81F, K85R, R102Y
# B4: Recombinant anti-CD98 chimeric antibody chAb5 (antibody, human IgG1, V domains shown)
# VH: B1 VH with S35T, P54K, V57G, Q78L, G104V
# VL: B1 VL with N28S, N32S, N33S, P46L, Q96H
# B5: Recombinant anti-CD98 chimeric antibody chAb2 (antibody, human IgG1, V domains shown)
# VH: B1 VH with T28N, P54K, V57G, N76D
# VL: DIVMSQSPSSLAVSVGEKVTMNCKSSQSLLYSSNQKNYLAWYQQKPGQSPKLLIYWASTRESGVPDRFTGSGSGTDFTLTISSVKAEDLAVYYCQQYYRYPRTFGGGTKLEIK
# B6: Recombinant anti-CD98 chimeric antibody chAb6 (antibody, human IgG1, V domains shown)
# VH: QVQLKESGPGLAQPSQTLSLTCTVSGFSLSTYGVIWLRQPPGKGLEWMGVIWTNGNTNYNSTLKSRLSISRDTSESQVYLQMNSLQTEDTATYYCARHYYDGAYYYGYFDYWGQGVMVTVSS
# VL: DIVMTQTPSSQAVSAGEKVTMSCKSSQSLLYSENKKNYLAWYQQKPGQSPKLLIYWASTRESGVPDRFIGSGSGTDFTLTISSVQAEDLAVYYCQQYYYFPYTFGAGTKLELK
# B7: Recombinant anti-CD98 chimeric antibody chAb7 (antibody, human IgG1, V domains shown)
# VH: B6 VH with A12V, L37V, T53A, E75K, Q81K, A103T
# VL: B6 VL with S22N, A106P
# B8: Recombinant anti-CD98 chimeric antibody chAb9 (antibody, human IgG1, V domains shown)
# VH: B6 VH with A12V, T23A, T31N, L37V, G49A, E75K, Q81K, A103T
# VL: B6 VL with S32T, I69M, T103M
# B9: Recombinant anti-CD98 chimeric antibody chAb13 (antibody, human IgG1, V domains shown)
# VH: B6 VH with A12V, T31S, L37V, V50I, T53A, T62A, E75K, Q81K, A103T, Y104H
# VL: B6 VL with I2T, N37K, Y99N
# notes: also called chAbl 3
# B10: Recombinant anti-CD98 chimeric antibody chAb8 (antibody, human IgG1, V domains shown)
# VH: EVQLVESGGGLVQPGRSLKLSCAASGFTFSDYAMAWVRQAPKKGLEWVASIIYDGRGTYYRDSVKGRFTISRDNAKSTLYLQMDSLRSEDTATYYCARQGDGTYYYWGYFDYWGQGVMVTVSS
# VL: DIVMTQSPSSLAVSAGETVTINCKSSQSLLSSGNQKNYLAWYQQKPGQSPKLLIYWASTRQSGVPDRFIGSGSGTDFTLTINSVQAEDLAIYYCQQYYDTPYTFGAGTKLELK
# B11: Recombinant anti-CD98 chimeric antibody chAb12 (antibody, human IgG1, V domains shown)
# VH: B10 VH with Y109S
# VL: B10 VL with N82S, Y93H
# B12: Recombinant anti-CD98 chimeric antibody chAb10 (antibody, human IgG1, V domains shown)
# VH: B10 VH with G44S, S50T, Y60C, Y105H
# VL: B10 VL with N82S, L110V, E111D
# Target: T4, Cynomolgus monkey CD98 expressed on stably transfected 3T12 cells (cynomolgus monkey)
# T4 construct: whole, on cells; also called cyCD98
# Experiment: flow cytometry, 3T12 cells expressing cynomolgus CD98
# Method: (§1) Briefly, binding kinetics of anti-CD98 chimera mAbs for human and cynomolgus CD98 ECDs were determined by surface plasmon resonance-based measurements as described in Example 4. Table 10 reported the association and dissociation rate constants for CD98 binding, kₐ (M⁻¹s⁻¹) and kd (s⁻¹), and the equilibrium dissociation constant KD (M) of the interaction between antibodies and the target antigen. Binding of anti-CD98 chimera mAbs for CD98 on cell surface was evaluated by flow cytometry against CHO-K1 cell line stably transfected to express human CD98 and 3T12 cell line stably transfected to express cynomolgus monkey CD98.
row,EC50 [nM],Binder
1,9.86,B1
2,17.2,B2
3,9.87,B3
4,24.2,B4
5,12.7,B5
6,5.99,B6
7,6.49,B7
8,11.1,B8
9,2.98,B9
10,10.1,B10
11,14.9,B11
12,10.8,B12

# Target: T1, Human CD98 expressed on stably …
# Experiment: flow cytometry, CHO-K1 cells expressing human CD98
# Method: as §1
row,EC50 [nM],Binder
1,1.67,B1
2,5.41,B2
3,2.02,B3
4,3.25,B4
5,3.84,B5
6,2.08,B6
7,2.56,B7
8,8.55,B8
9,3.24,B9
10,2.61,B10
11,2.89,B11
12,6.45,B12

# Target: T2, Human CD98 ECD with C-terminal His-tag
# Experiment: SPR Biacore, anti-Fc capture of mAb, CD98 ECD analyte
# Method: (§2) The binding kinetics of these purified mouse and rat monoclonal anti-CD98 antibodies for purified recombinant CD98 protein (extracellular domain. ECD) were determined by surface plasmon resonance-based measurements made on Biacore T100/T200 instruments (GE Healthcare, Piscataway, N.J.) at 25° C. using an anti-Fc capture assay approach. Binding kinetic measurements were made in the assay buffer HBS-EP+: 10 mM Hepes, pH 7.4, 150 mM NaCl, 3 mM EDTA, 0.05% Tween 20). For example, approximately 8000 RU of anti-Fc (species specific) polyclonal antibody (Thermo Fisher Scientific Inc. Rockford, Ill.) diluted in 10 mM sodium acetate (pH 4.5) was directly immobilized across a CM5 research grade biosensor chip using a standard amine coupling kit according to manufacturer's instructions and procedures at 25 μg/ml. Unreacted moieties on the biosensor surface were blocked with ethanolamine. The test antibody to be captured as a ligand was diluted in running buffer to ˜0.5 μg/mL and injected over anti-Fc surface at a flow rate of 10 μL/min, CD98 binding and dissociation were observed under a continuous flow rate of 80 μL/min. Human and cynomolgus monkey CD98 ECDs, both with a C-terminal His-tag, are used for this study (Table 3). After each cycle the anti-Fc capture surface was regenerated using 10 mM Glycine-HCl, pH 1.5. During the assay, all measurements were referenced against the capture surface alone (i.e., with no captured test antibody) and buffer-only injections (no antigen) were used for double referencing. For kinetic analysis, rate equations derived from the 1:1 Langmuir binding model were fitted simultaneously, globally and with mass transfer term included to multiple referenced antigen binding curves using Biacore T100T200 Evaluation software.
# (§3) Briefly, binding kinetics of anti-CD98 chimera mAbs for human and cynomolgus CD98 ECDs were determined by surface plasmon resonance-based measurements as described in Example 4.
Kd [nM],koff [s⁻¹],kon [M⁻¹ s⁻¹],Binder
0.21,1.5e-05,68000,B1
2.8,7.8e-05,28000,B2
21,0.0034,160000,B3
7.5,0.0003,40000,B4
1.6,9.6e-05,59000,B5
1.3,0.00014,110000,B6
0.45,6.2e-05,140000,B7
3.3,0.00024,73000,B8
1.2,0.00016,130000,B9
4.2,0.00028,67000,B10
1.2,6.3e-05,54000,B11
3.3,0.00033,100000,B12

# Target: T3, Cynomolgus monkey CD98 ECD with …
# Experiment: as above
# Method: as §2, §3
Kd [nM],koff [s⁻¹],kon [M⁻¹ s⁻¹],Binder
0.8,2.2e-05,28000,B1
8.3,7.3e-05,8800,B2
40,0.0016,39000,B3
25,0.00044,18000,B4
58,0.0011,19000,B5
7.9,0.00037,47000,B6
3.5,0.00022,63000,B7
19,0.00063,33000,B8
7.1,0.00044,62000,B9
17,0.0005,28000,B10
3.8,9.3e-05,24000,B11
11,0.00064,59000,B12
